These results are taken from US20200283478A1 (Genentech, published 2020).

Experiment [1] concerns the target T1, proprotein convertase subtilisin/kexin type 9 (PCSK9) (human, UniProt Q8NBP7 31-692).
T1 construct: His-tagged full-length PCSK9 in TR-FRET and SPR, biotinylated in phage ELISA; secreted protein is autoprocessed (prodomain plus catalytic/CRD chain starting at S153); also called rec.PCSK9; His-PCSK9
As to the kind of experiment: phage spot ELISA. For orientation: ELISA stands for enzyme-linked immunosorbent assay.
Excerpt: The binding signal of the same phage particle to NeutrAvidin was considered as non-specific binding (“noise”).

The target in experiment [2] is T2, PCSK9Δhelix (human, Chemically biotinylated in the phage ELISAs; the site is not given.).
T2 construct: construct M1-Q692 with engineered TEV site, cleaved by TEV; also called His-PCSK9Δhelix; open groove PCSK9Δhelix
T2 sequence (prodomain, as listed by the source mutant limits assumed, chain 1 of 2): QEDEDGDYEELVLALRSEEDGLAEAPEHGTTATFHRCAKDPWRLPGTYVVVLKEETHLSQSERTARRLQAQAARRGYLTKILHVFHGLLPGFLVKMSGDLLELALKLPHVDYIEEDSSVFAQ
T2 sequence (chain, as listed by the source mutant limits assumed, chain 2 of 2): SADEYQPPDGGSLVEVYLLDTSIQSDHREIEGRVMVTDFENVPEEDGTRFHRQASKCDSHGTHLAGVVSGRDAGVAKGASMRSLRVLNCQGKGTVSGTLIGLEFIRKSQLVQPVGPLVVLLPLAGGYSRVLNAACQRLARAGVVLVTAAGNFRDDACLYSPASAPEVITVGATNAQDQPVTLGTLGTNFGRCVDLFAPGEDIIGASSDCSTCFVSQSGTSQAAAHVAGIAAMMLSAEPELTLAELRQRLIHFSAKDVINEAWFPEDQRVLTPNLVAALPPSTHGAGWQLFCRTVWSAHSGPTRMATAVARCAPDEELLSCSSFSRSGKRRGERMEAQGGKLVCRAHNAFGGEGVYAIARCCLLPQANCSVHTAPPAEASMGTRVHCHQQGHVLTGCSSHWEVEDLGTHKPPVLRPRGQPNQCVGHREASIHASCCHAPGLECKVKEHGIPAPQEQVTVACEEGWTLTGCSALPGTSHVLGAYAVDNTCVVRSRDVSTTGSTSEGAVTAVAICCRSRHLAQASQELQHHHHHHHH
Kind of experiment: phage spot ELISA.

In experiment [3] the target is T1, proprotein convertase subtilisin/kexin …. As to the kind of experiment: phage spot ELISA. This is another data set of the same source.
Experiment [4] deals with T2, PCSK9Δhelix. Kind of experiment: phage spot ELISA. This is another data set of the same source.
The target of experiment [5] is T3, His-tagged, full-length PCSK9 (human, UniProt Q8NBP7 31-692).
T3 construct: secreted PCSK9 is autocatalytically cleaved into prodomain and catalytic domain + CRD (from S153), which stay associated; also called His-PCSK9; proprotein convertase subtilisin/kexin type 9; not shown: His tag
T3 sequence (Q8NBP7 31-692 limits assumed): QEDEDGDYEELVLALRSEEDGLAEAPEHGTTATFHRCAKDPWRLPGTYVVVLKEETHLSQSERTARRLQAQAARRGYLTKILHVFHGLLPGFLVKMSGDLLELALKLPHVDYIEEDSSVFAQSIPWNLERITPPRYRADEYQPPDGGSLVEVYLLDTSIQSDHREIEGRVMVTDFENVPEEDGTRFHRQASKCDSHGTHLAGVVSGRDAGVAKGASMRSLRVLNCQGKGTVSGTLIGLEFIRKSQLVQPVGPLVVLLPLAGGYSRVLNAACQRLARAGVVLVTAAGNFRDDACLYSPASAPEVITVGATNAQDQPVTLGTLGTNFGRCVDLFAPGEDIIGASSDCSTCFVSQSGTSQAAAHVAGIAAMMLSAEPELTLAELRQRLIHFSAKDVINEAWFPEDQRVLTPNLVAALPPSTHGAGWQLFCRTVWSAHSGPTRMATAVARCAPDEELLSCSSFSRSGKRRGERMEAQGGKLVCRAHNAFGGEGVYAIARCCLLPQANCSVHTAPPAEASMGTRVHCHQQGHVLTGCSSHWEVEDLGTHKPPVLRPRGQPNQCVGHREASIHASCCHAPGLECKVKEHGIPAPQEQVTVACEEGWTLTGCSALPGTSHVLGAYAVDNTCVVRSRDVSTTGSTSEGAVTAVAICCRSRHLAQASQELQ
Kind of experiment: TR-FRET competition (PCSK9/EGF(A) assay); competitor EGF(A)-Fc.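 Further: proximity signal from anti-His APC on PCSK9 paired with anti-Fc europium on the Fc ligand, read as normalized TR-FRET ratio across compound dilutions.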 A general note: TR-FRET usually uses a lanthanide donor and a delayed reading to cut background.

Where two headings read alike, the source gives them in different places. Bridge positions count the residues as written; N and C are the ends. Square brackets hold non-standard residues; d marks the D form. Some results are limits rather than exact numbers.

T1 sequence (Q8NBP7 other isoform, or with tags, fused parts or gaps limits assumed): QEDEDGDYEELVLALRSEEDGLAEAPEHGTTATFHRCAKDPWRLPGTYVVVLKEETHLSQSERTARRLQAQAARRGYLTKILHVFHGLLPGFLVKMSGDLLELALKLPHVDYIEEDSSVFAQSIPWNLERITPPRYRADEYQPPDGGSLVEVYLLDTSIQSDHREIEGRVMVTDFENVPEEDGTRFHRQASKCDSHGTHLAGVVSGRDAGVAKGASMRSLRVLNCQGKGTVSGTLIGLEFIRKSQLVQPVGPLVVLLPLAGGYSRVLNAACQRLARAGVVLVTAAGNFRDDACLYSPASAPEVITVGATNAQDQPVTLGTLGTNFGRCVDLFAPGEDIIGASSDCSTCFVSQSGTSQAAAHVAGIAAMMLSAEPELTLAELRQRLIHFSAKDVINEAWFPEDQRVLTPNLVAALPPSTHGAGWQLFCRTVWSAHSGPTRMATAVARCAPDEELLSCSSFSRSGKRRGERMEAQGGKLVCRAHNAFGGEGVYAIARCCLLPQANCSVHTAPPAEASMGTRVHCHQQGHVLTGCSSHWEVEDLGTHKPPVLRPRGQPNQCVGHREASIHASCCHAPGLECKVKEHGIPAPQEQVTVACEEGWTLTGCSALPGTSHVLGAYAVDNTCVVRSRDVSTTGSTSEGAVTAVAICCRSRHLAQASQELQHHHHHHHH

Turning to TAFTSWEEYLDWVGSGVVLWNHSRIL [SEQ ID NO 313], in experiment [1], the ELISA came to 2.95 and the s/n ratio was 26.8. Moreover, in the experiment with PCSK9Δhelix [2], the ELISA was determined as 2.96 and the s/n ratio turned out to be 26.6.

In the case of TAFTSWEEYLDWVGSGRGGYELNIPR [SEQ ID NO 326], the ELISA in experiment [3] came out at 3.13; with PCSK9Δhelix [4] it was 2.92; in experiment [1] it was 2.93; with PCSK9Δhelix [2], 2.69. Besides, the s/n ratio in experiment [3] stood at 29.8; with PCSK9Δhelix [4], 25.6; in experiment [1], 26.1; in the experiment with PCSK9Δhelix [2] it was 18.8.

TAFTSWEEYLDWVGSGALWNMRRVESVAFR [SEQ ID NO 319]: in experiment [1], the ELISA was 3.09 and the s/n ratio turned out to be 23.9. For the same molecule, in the experiment with PCSK9Δhelix [2], the ELISA is 3.04 and the s/n ratio came out at 20.1.

TAFTSWEEYLDWVGSGTRYADRGVMVYSLS [SEQ ID NO 321]: the ELISA turned out to be 3.03 in experiment [3], 3.03 with PCSK9Δhelix [4], 2.85 in experiment [1] and 2.81 with PCSK9Δhelix [2]. Besides, the s/n ratio is 30.3 in experiment [3], 27.5 in the experiment with PCSK9Δhelix [4], 23 in experiment [1] and 22.8 with PCSK9Δhelix [2].

In the case of TAFTSWEEYLDWVGSGKNNYAYLINMPRAPGI [SEQ ID NO 325], the ELISA (in experiment [1]; in the experiment with PCSK9Δhelix [2]) was 2.54 each time. The results for the s/n ratio (in experiment [1]; in the experiment with PCSK9Δhelix [2]) were 24.7 and 29.1, respectively.

For TAFTSWEEYLDWVGSGNELWNINRLRSS [SEQ ID NO 317], in experiment [1], the ELISA was found to be 2.94 and the s/n ratio amounted to 12. Moreover, in the experiment with PCSK9Δhelix [2], the ELISA amounted to 2.76 and the s/n ratio amounted to 13.2.

As for TAFTSWEEYLDWVGSGEHQFYSYRGVDVYR [SEQ ID NO 324], the figures for the ELISA (in experiment [1]; in the experiment with PCSK9Δhelix [2]) were 2.55 and 2.66, respectively. Besides, the values for the s/n ratio (in experiment [1]; with PCSK9Δhelix [2]) were 22.3 and 26.2, respectively.

As to TAFTSWEEYLDWVGSGSCSWNVERIRGCSV [SEQ ID NO 311], in experiment [1], the ELISA turned out to be 2.92 and the s/n ratio came out at 18.8. Further, in the experiment with PCSK9Δhelix [2], the ELISA turned out to be 2.83 and the s/n ratio worked out at 26.

For the molecule TAFTSWEEYLDWVGSGEDVVCYGRVDYMPLCV [SEQ ID NO 330], in experiment [1], the ELISA turned out to be 2.67 and the s/n ratio came out at 25.2. Besides, in the experiment with PCSK9Δhelix [2], the ELISA was found to be 2.7 and the s/n ratio was 24.8.

Consider TAFTSWEEYLDWVGSGGPWNLNRV [SEQ ID NO 309], for which the ELISA is 2.68 in experiment [1] and 2.7 with PCSK9Δhelix [2]. Also, the s/n ratio came to 27.6 in experiment [1] and 29.3 in the experiment with PCSK9Δhelix [2].

In the case of TAFTSWEEYLDWVGSGNCWSSLRGICENLG [SEQ ID NO 307], the ELISA worked out at 2.81 in experiment [1] and 2.91 with PCSK9Δhelix [2]. Moreover, the s/n ratio came out at 21.7 in experiment [1] and 22.5 with PCSK9Δhelix [2].

For TAFTSWEEYLDWVGSGGHPLWNLSRI [SEQ ID NO 316], in experiment [1], the ELISA was determined as 2.73 and the s/n ratio came to 25.7. In addition, in the experiment with PCSK9Δhelix [2], the ELISA came out at 2.6 and the s/n ratio turned out to be 9.12.

Consider TAFTSWEEYLDWVGSGKLWNLTRISS [SEQ ID NO 312], for which, in experiment [1], the ELISA is 2.87 and the s/n ratio stood at 28.1. Moreover, in the experiment with PCSK9Δhelix [2], the ELISA was 2.69 and the s/n ratio amounted to 25.8.

B1: Compound 100 (Ac-CRLPWNLQRIGlPC-NH2) (peptide)
peptide: Ac-CRLPWNLQRIG[dL]PC-NH2
modifications: disulfide 1-14
SMILES: CC[C@H](C)[C@@H]1NC(=O)[C@H](CCCNC(=N)N)NC(=O)[C@H](CCC(N)=O)NC(=O)[C@H](CC(C)C)NC(=O)[C@H](CC(N)=O)NC(=O)[C@H](Cc2c[nH]c3ccccc23)NC(=O)[C@@H]2CCCN2C(=O)[C@H](CC(C)C)NC(=O)[C@H](CCCNC(=N)N)NC(=O)[C@@H](NC(C)=O)CSSC[C@@H](C(N)=O)NC(=O)[C@@H]2CCCN2C(=O)[C@@H](CC(C)C)NC(=O)CNC1=O
In general, IC50 refers to the midpoint of a concentration-inhibition curve. High values mean weaker potency in that assay, low ones greater potency in that assay. Consider B1, for which, in experiment [5], the IC50 was above 50 µM.

For the molecule TAFTSWEEYLDWVGSGKLWNLGRV [SEQ ID NO 306], in experiment [1], the ELISA is 2.79 and the s/n ratio amounted to 28.2. In addition, in the experiment with PCSK9Δhelix [2], the ELISA is 2.62 and the s/n ratio came to 8.55.

TAFTSWEEYLDWVGSGGEYLWNLKRLES [SEQ ID NO 320]: the ELISA in experiment [1] came to 2.84; with PCSK9Δhelix [2] it was 2.94. Further, the s/n ratio in experiment [1] stood at 28.7; with PCSK9Δhelix [2], 26.

Take TAFTSWEEYLDWVGSGNVRCYRDVPSCS [SEQ ID NO 329]: the ELISA worked out at 2.66 in experiment [1] and 2.68 in the experiment with PCSK9Δhelix [2]. The s/n ratio in experiment [1] was 25.9; with PCSK9Δhelix [2] it was 26.3.

In the case of TAFTSWEEYLDWVGSGPLLWNLQKVH [SEQ ID NO 310], in experiment [1], the ELISA was 2.75 and the s/n ratio was 23.5. For the same molecule, in the experiment with PCSK9Δhelix [2], the ELISA came to 2.76 and the s/n ratio was 24.4.

As to TAFTSWEEYLDWVGSGRCGLAWCVVLVDQ [SEQ ID NO 365], in experiment [3], the ELISA was 2.62 and the s/n ratio came to 20.8. Further, in the experiment with PCSK9Δhelix [4], the ELISA was 2.8 and the s/n ratio was 28.5.

On to TAFTSWEEYLDWVGSGACLNHFVSGNMIRC [SEQ ID NO 327], for which the ELISA in experiment [1] was 2.87; with PCSK9Δhelix [2] it was 1.38. Further, the figures for the s/n ratio (in experiment [1]; with PCSK9Δhelix [2]) were 26.1 and 8.17, respectively.

As for TAFTSWEEYLDWVGSGMPWNLARIER [SEQ ID NO 318], in experiment [1], the ELISA stood at 2.86 and the s/n ratio stood at 27.8. For the same molecule, in the experiment with PCSK9Δhelix [2], the ELISA came to 3 and the s/n ratio is 30.3.

For TAFTSWEEYLDWVGSGPHSYWLDRVQ [SEQ ID NO 332], in experiment [1], the ELISA came to 2.89 and the s/n ratio turned out to be 25.3. Further, in the experiment with PCSK9Δhelix [2], the ELISA amounted to 2.68 and the s/n ratio was determined as 24.6.

As for TAFTSWEEYLDWVGSGCPFYDWRCSDFS [SEQ ID NO 328], in experiment [1], the ELISA was 2.8 and the s/n ratio worked out at 25. Also, in the experiment with PCSK9Δhelix [2], the ELISA was 2.78 and the s/n ratio turned out to be 26.5.

For TAFTSWEEYLDWVGSGGCVKYRGSVSCQESKT [SEQ ID NO 323], the results for the ELISA (in experiment [1]; with PCSK9Δhelix [2]) were 2.85 and 2.73, respectively. In addition, the s/n ratio in experiment [1] worked out at 18; in the experiment with PCSK9Δhelix [2], 24.2.

In the case of TAFTSWEEYLDWVGSGMVYVDRGVRVFT [SEQ ID NO 322], the ELISA in experiment [1] was found to be 2.82; with PCSK9Δhelix [2], 2.71. Further, the s/n ratio in experiment [1] amounted to 27.9; with PCSK9Δhelix [2], 25.1.

For TAFTSWEEYLDWVGSGNPTYWLTRIS [SEQ ID NO 331], in experiment [1], the ELISA turned out to be 2.98 and the s/n ratio turned out to be 23.1. Besides, in the experiment with PCSK9Δhelix [2], the ELISA stood at 3.02 and the s/n ratio amounted to 28.

As to TVFTSWEEYLDWV (also called phage displaying Pep2-8) [phage-displayed Pep2-8 (on p8)], in experiment [1], the ELISA worked out at 2.98 and the s/n ratio amounted to 30. In the experiment with PCSK9Δhelix [2], the ELISA came out at 2.1 and the s/n ratio is 21.8.

With TAFTSWEEYLDWV [phage-displayed Pep2-8V2A], in experiment [1], the ELISA was determined as 1.27 and the s/n ratio was determined as 16.7. For the same molecule, in the experiment with PCSK9Δhelix [2], the ELISA stood at 0.07 and the s/n ratio is 1.07.

Regarding TAFTSWEEYLDWVGSGVPWNLARL [SEQ ID NO 314], the results for the ELISA (in experiment [1]; in the experiment with PCSK9Δhelix [2]) were 2.82 and 2.68, respectively. Moreover, the figures for the s/n ratio (in experiment [1]; in the experiment with PCSK9Δhelix [2]) were 29.3 and 27.3, respectively.

For the molecule TAFTSWEEYLDWVGSGVPWNLAKI [SEQ ID NO 315], in experiment [1], the ELISA came to 2.69 and the s/n ratio was determined as 22.4. In addition, in the experiment with PCSK9Δhelix [2], the ELISA came out at 2.67 and the s/n ratio amounted to 24.1.
